Article PMC6463862, “Adaptive and degenerative evolution of the S-Phase Kinase-Associated Protein 1-Like family in Arabidopsis thaliana” (PeerJ, 2019)

Assays:
[1] = target: T1, JMJ22 (Arabidopsis (cDNA clone from the …, UniProt Q67XX3 1-502)); test: two-hybrid; F-box proteins as GAL4-BD baits (pGBK-T7, AH109), ASK1/2 as GAL4-AD preys (pGAD-T7, Y187), mated; growth on SD-Leu-Trp-Ade-His + X-alpha-gal at 30 °C normalised to growth on SD-Leu-Trp, and beta-galactosidase activity assay (two independent assays); results told together; conditions: partners not purified
T1 construct: F-box protein JMJ22; CDS PCR amplified from an ABRC cDNA clone and ligated in frame to the 3' end of the GAL4-BD CDS in pGBK-T7 (bait); source: yeast two-hybrid fusion
T1 sequence (looked up): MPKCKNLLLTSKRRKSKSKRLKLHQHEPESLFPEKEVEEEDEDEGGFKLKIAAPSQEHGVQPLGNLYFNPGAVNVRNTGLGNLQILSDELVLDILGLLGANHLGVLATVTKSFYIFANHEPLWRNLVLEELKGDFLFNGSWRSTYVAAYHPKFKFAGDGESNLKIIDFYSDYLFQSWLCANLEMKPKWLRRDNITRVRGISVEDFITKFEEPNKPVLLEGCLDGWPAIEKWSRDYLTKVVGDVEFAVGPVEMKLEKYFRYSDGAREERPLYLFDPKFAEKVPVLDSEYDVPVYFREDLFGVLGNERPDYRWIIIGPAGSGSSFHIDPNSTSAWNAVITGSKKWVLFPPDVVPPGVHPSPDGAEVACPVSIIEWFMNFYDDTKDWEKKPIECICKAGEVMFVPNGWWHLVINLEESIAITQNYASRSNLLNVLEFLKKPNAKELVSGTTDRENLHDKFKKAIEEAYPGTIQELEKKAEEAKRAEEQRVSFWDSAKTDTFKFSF

[2] = target: DIF (Arabidopsis (cDNA clone from the Arabidopsis Biological Resource Center)); test: as above

B1: Arabidopsis Skp1-Like 1 (natural protein, A. thaliana, UniProt Q39255 1-160, looked up)
chain: MSAKKIVLKSSDGESFEVEEAVALESQTIAHMVEDDCVDNGVPLPNVTSKILAKVIEYCKRHVEAAASKAEAVEGAATSDDDLKAWDADFMKIDQATLFELILAANYLNIKNLLDLTCQTVADMIKGKTPEEIRTTFNIKNDFTPEEEEEVRRENQWAFE
notes: ASK1 (A. thaliana Skp1-Like 1); CDS PCR amplified from an ABRC cDNA clone and ligated in frame to the 3' end of the GAL4-AD CDS in pGAD-T7 (prey); also called ASK1; source: yeast two-hybrid fusion
In the case of B1, the “fold interaction strength against ASK2” value [1] is reported as over 2 fold and the fold interaction strength against ASK2 [2] is reported as over 2 fold.
